Article PMC9675756, “Structure of the catalytically active APOBEC3G bound to a DNA oligonucleotide inhibitor reveals tetrahedral geometry of the transition state”

Biological target: A3G-CTD2* (catalytically inactive), MST construct (human, UniProt Q9HC16 191-384, E259A)
Assay: MST; 23 C; MST: 20 mM Bis-Tris pH 6.5, 100 mM NaCl, 1 mM DTT, 0.002% Tween 20, 50 nM protein, RED-tris-NTA dye, 23 C; NMR inhibition: 50 mM NaPO4 pH 6.5, 100 mM NaCl, 0.002% Tween 20, 1 mM DTT, 10 µM ZnCl2, 25 C
Conditions: protein: recombinant; tags: His (pET-28a); single strand

Sequence of A3G-CTD2* (catalytically inactive), MST construct (Q9HC16 191-384 E259A): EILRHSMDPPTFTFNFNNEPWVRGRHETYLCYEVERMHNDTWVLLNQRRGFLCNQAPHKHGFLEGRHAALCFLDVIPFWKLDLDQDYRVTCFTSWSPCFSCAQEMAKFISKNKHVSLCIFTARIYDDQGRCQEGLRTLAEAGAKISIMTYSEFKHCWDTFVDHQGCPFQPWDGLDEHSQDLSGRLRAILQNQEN

B1: 5'-AATCCCAAA (substrate) (ssDNA)
DNA: AATCCCAAA
- Kd: 5.8 ± 0.8 µM
